Assay results from patent publication US10597674B2, “HPPD variants and methods of use” (BASF Agricultural Solutions Seed, US LLC, priority 2015, dated 2020).
Changes are numbered by the printed parent chain. In names and notes the source's numbering stands.

Tests used:
soybean shoots = test: Soybean transformation, selection of shoots with tembotrione; format: in vivo; conditions: wild-type soybean shoots treated with selection marker
Text: Soybean transformation was achieved by using methods well known in the art, such as the one described using the Agrobacterium tumefaciens mediated transformation soybean half-seed explants using essentially the method described by Paz et al. (2006), Plant cell Rep. 25:206. Transformants were identified by using the HPPD inhibitor herbicide “tembotrione” as selection marker. The appearance of green shoots was observed, and documented as an indicator of tolerance to the HPPD inhibitor herbicide tembotrione.

[1] = system: E. coli cells expressing an HPPD polypeptide; test: Brown Color Assay on solid LB-agar, visual score of brown pigment; format: cell-based; conditions: 25, 50, 100, 250 and 500 μM Cmpd. 1
In short: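 E. coli expressing mutant HPPD, diluted to OD600 1, spotted in triplicate on LB-agar with 5 mM tyrosine, 42 mM succinate and 0, 25, 50, 100, 250 or 500 μM Cmpd. 1. Incubated 24 h at 30 °C, then kept dark at room temperature. Brown pigment scored visually at 7 days as ++, + or 0.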

[2] = target: HPPD polypeptides (wild-type SEQ ID NO:1 and mutants) (Pseudomonas sp., UniProt P80064, A172V/A339V/A53E/D148E/D45N/E105D/E287Q/E300V/E334P/F143Y/G286D/G335H/H150N/H254A/H63N/I158V/I187A/I249V/I344V/K92N/L18F/N24G/N280D/N336S/P267G/S245T/S257K/S301E/T205S/T269E/V65I); conditions: compared with SEQ ID NO: 24; Table 3a and 3c
[3] = target: HPPD polypeptides (wild-type SEQ ID NO:1 and mutants) (Pseudomonas sp., UniProt P80064, A172V/A339V/A53E/D148E/D329H/D45N/E105D/E287Q/E300V/E334P/F143Y/G286D/G335D/H150N/H254A/H63N/I158V/I187A/I249V/I344V/K92N/L18F/M263R/N24G/N280D/N336S/P267G/S245T/S257K/S301E/T205S/T269E/V65I); conditions: 15 μM Cmpd. 1, high substrate concentration (Table 3a)
[4] = system: HPPD polypeptides (purified, wild-type SEQ ID NO:1 and mutants); test: Coupled HPPD activity assay: ki determination, competitive inhibition fit; format: biochemical, Pseudomonas fluorescens; conditions: inhibitor Cmpd. 1
Protocol: For the generation of purified HPPD polypeptide samples, cells were grown for 3 h at 37° C. in 5 ml LB medium containing 100 μg/ml ampicillin in a 50 ml shaker flask at 140 rpm. One ml of this starter culture was used as inoculum for the expression culture. […] At an OD600 of about 0.6, IPTG (Roth, Karlsruhe, Germany) was added to a concentration of 0.4 mM. After further growth for 60 min at 37° C., the temperature was reduced to 28° C. and growth continued for another 18 h at 140 rpm. Cells were harvested by centrifugation at 4° C., 3200 g for 30 min in 50 ml Falcon tubes and cell pellets were stored at −80° C. […]
The resulting protein samples were re-buffered into 20 mM Tris, 20% Glycerol (pH 7.8) (Sigma-Aldrich, St. Louis, USA) by use of Zeba™ Spin Desalting Columns, 7K MWCO, 10 mL (Thermo Fisher Scientific, Waltham, USA) and analysed for protein concentration and purity by Abs280 (NANODROP 8000, Thermo Fisher Scientific, Waltham, USA) and SDS-PAGE. […]
The mutant HPPD polypeptides represented here are examples by a way of illustration, not by a way of limitation. […] The inhibitor concentrations were adopted for the respective HPPD polypeptide/inhibitor pairs to generate dynamic data, i.e. variants with lower tolerance were analyzed in a range of lower inhibitor concentrations, and concentrations of up to 1200 μM were used for variants with maximized tolerance. […]

[5] = system: transgenic T1 soybean events; test: Field trials of T1 soybean events, leaf damage eight days after application; format: in vivo
Protocol: Soybean plants expressing an HPPD inhibitor tolerant polypeptide of the present invention alone, or along with a gene conferring tolerance to glyphosate and/or a gene conferring tolerance to glufosinate or having a “plant expression cassette”, which includes only an HPPD inhibitor tolerant polypeptide of the present invention, were tested for tolerance to different HPPD inhibitor herbicide chemical classes. The transgenic plants were routinely analyzed for the expression and presence of the transgenes using the ELISA protein detection method (see detailed description under item D and H). Only plants recovering in the selection media and having a detectable HPPD transgene protein expression were regenerated, transferred to the greenhouse and used at V2-V4 growth stage for the HPPD inhibitor herbicide tolerance analysis of the T0 soybean events in the greenhouse (Example 6). The chemical formulation with HPPD inhibitor herbicides was supplemented with ammonium sulfate and methyl ester rapeseed oil. Herbicide tolerance evaluation was taken 5-21 days after spraying. The best performing independent T0 soybean events were selfed to produce T1 soybean seeds. In the field trails, the advanced T1 soybean seeds were planted and treated with either 210 g/ha of isoxaflutole or 150 g/ha of Cmpd.
In Table 10, the frequency of the soybean events showing a good tolerance, i.e. equal or less than 15% damage of the total leaf area are summarized

[6] = target: HPPD polypeptides (wild-type SEQ ID NO:1 and mutants) (Pseudomonas sp., UniProt P80064, A172V/A339V/A53E/D148E/D329H/D45N/E105D/E287Q/E300V/E334P/F143Y/G286D/G335D/H150N/H254A/H63N/I158V/I187A/I249V/K92N/L18F/M263R/N24G/N280D/N336S/S245T/S257K/S301E/T205S/V65I); conditions: compared with SEQ ID NO:12; Tables 3a, 3b
[7] = target: HPPD polypeptides (wild-type SEQ ID NO:1 and mutants) (Pseudomonas sp., UniProt P80064, A172V/A339V/A53E/D148E/D45N/E105D/E287Q/E300V/E334P/F143Y/G286D/G335D/H150N/H254A/H63N/I158V/I187A/I249V/I344V/K92N/L18F/N24G/N280D/N336S/P267G/S245T/S257K/S301E/T205S/T269E/V65I); conditions: 50 μM Cmpd. 1, low substrate concentration
[8] = system: HPPD polypeptides (wild-type SEQ ID NO:1 and mutants); conditions: 50 μM Cmpd. 1, low substrate concentration (Table 5)
[9] = 150 g/ha Cmpd. 1, stage V2-V4, eight days after application
[10] = 210 g/ha isoxaflutole, stage V2-V4, eight days after application

HPPD polypeptides (wild-type SEQ ID NO:1 and mutants) (Pseudomonas sp., UniProt P80064, A172V/A339V/A53E/D148E/D329H/D45N/E105D/E287Q/E300V/E334P/F143Y/G286D/G335D/H150N/H254A/H63N/I158V/I187A/I249V/I344V/K92N/L18F/M263R/N24G/N280D/N336S/P267G/S245T/S257K/S301E/T205S/T269E/V65I), sequence (P80064 other isoform, or with tags, fused parts or gaps with the stated changes): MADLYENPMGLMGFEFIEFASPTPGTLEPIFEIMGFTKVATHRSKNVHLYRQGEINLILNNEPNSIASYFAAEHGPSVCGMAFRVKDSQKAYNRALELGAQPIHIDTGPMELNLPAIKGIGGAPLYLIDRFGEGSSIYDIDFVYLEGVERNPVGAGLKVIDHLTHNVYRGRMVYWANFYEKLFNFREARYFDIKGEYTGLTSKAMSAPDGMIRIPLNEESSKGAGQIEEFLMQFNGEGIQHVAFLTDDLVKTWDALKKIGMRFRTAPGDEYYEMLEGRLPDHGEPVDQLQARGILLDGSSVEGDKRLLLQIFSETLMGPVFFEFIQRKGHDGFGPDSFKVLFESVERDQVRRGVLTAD
HPPD polypeptides (wild-type SEQ ID NO:1 and mutants) (Pseudomonas sp., UniProt P80064, A172V/A339V/A53E/D148E/D45N/E105D/E287Q/E300V/E334P/F143Y/G286D/G335D/H150N/H254A/H63N/I158V/I187A/I249V/I344V/K92N/L18F/N24G/N280D/N336S/P267G/S245T/S257K/S301E/T205S/T269E/V65I), sequence (P80064 other isoform, or with tags, fused parts or gaps with the stated changes): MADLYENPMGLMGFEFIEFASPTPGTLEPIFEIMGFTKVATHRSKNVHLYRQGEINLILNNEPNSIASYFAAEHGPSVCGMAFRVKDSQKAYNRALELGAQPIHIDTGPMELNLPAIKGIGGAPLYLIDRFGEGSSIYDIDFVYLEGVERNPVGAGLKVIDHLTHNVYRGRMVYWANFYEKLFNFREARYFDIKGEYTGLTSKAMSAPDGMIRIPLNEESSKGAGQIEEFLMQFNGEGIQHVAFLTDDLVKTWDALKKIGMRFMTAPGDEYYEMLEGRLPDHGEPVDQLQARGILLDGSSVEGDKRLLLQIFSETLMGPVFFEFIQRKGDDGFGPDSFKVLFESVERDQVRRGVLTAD
HPPD polypeptides (wild-type SEQ ID NO:1 and mutants) (Pseudomonas sp., UniProt P80064, A172V/A339V/A53E/D148E/D329H/D45N/E105D/E287Q/E300V/E334P/F143Y/G286D/G335D/H150N/H254A/H63N/I158V/I187A/I249V/K92N/L18F/M263R/N24G/N280D/N336S/S245T/S257K/S301E/T205S/V65I), sequence (P80064 other isoform, or with tags, fused parts or gaps with the stated changes): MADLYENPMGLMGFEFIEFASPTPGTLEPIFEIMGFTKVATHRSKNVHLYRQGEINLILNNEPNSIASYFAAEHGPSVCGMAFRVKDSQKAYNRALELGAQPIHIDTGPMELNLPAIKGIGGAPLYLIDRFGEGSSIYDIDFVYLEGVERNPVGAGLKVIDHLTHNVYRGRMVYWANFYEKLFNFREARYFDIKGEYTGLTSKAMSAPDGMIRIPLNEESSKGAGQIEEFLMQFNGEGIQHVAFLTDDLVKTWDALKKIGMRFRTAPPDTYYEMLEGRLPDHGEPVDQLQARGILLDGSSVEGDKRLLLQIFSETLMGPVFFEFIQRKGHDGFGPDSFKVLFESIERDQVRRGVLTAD

CS(=O)(=O)c1ccc(C(=O)C2C(=O)CCCC2=O)c(Cl)c1COCC(F)(F)F [tembotrione, 2-[2-chloro-4-(methylsulfonyl)-3-[(2,2,2,-trifluoroethoxy)methyl]benzoyl]-1,3-cyclohexanedione]
appearance of shoots (soybean shoots): entirely bleached

B1: SEQ ID NO:31 (protein)
chain: MADLYENPMGLMGFEFIEFASPTPGTLEPIFEIMGFTKVATHRSKNVHLYRQGEINLILNNEPNSIASYFAAEHGPSVCGMAFRVKDSQKAYNRALELGAQPIHIDTGPMELNLPAIKGIGGAPLYLIDRFGEGSSIYDIDFVYLEGVERNPVGAGLKVIDHLTHNVYRGRMVYWANFYEKLFNFREARYFDIKGEYTGLTSKAMSAPDGMIRIPLNEESSKGAGQIEEFLMQFNGEGIQHVAFLTDDLVKTWDALKKIGMRFMTAPGDEYYEMLEGRLPDHGEPVDQLQARGILLDGSSVEGDKRLLLQIFSETLMGPVFFEFIQRKGDDGFGPHSFKVLFESVERDQVRRGVLTAD
modifications: mutant HPPD polypeptide
brown coloring compared with SEQ ID NO: 2, in words [1]: stronger brown coloring | residual turnover in the presence of Cmpd. 1 and MST, in words [2]: increase significantly

B2: SEQ ID NO:19 (protein)
chain: B1 chain with M264R, D330H, H336D
modifications: mutant HPPD polypeptide
Residual activity [3]: 68% | Residual turnover [3]: 79% | increase of ki towards Cmpd. 1 compared to SEQ ID NO:2 [4]: ~30 fold

B3: SEQ ID NO: 18: mutant HPPD polypeptide: M264R D330H E335P G336D N337S A340V (protein)
chain: B1 chain with M264R, G268P, E270T, D330H, H336D, V345I
modifications: mutant HPPD polypeptide
notes: mutant HPPD polypeptide: M264R D330H E335P G336D N337S A340V
Frequency in the population (events with ≤15% leaf damage) [5, 9]: 60% | Independent events with ≤15% leaf damage after spray [5, 9]: 12 | Frequency in the population (events with ≤15% leaf damage) [5, 10]: 60% | Independent events with ≤15% leaf damage after spray [5, 10]: 12 | HPPD inhibitor tolerance towards Cmpd. 1 and Cmpd. 2, in words [6]: further significant improved

B4: SEQ ID NO:17 (protein)
chain: B1 chain with H336D
modifications: mutant HPPD polypeptide
reduction of substrate turnover [7]: 46% | Residual activity [8]: 29% | increase of ki towards Cmpd. 1 compared to SEQ ID NO:2 [4]: ~20 fold
